Experimental data from patent US12012446B2, “Epstein-Barr virus antibodies and uses thereof” (priority 2017, dated 2024).

What was measured:
[1] = molecular target: T1, purified EBV gp350/220 (recombinant EBV gp350 ectodomain) (Epstein-Barr virus, UniProt P03200); test: Indirect ELISA on recombinant EBV gp350 ectodomain; assay type: binding
T1 construct: purified EBV gp350 ectodomain protein (AA 4-863); purchased Immune Technology Corporation
Protocol: Briefly, immunoplates (Costar 3590; Corning Incorporated) were coated with 50 μl of 0.5 μg/ml recombinant EBV gp350 ectodomain (Immune Technology Corporation) diluted in 1× phosphate buffered saline (PBS, pH 7.4) and incubated overnight at 4° C. After washing three times with 1×PBS containing 0.05% (v/v) Tween 20 (washing buffer), plates were blocked with 100 μl washing buffer containing 2% (w/v) bovine serum albumin (BSA) (blocking buffer) then incubated for 1 h at room temperature and washed as above. 100 μl of hybridoma supernatant or 50 μl of 10 μg/ml purified mAbs was added to each well (in triplicate) and incubated for 2 h at room temperature. […] The plates were washed as described above, followed by incubation with 50 μl of goat anti-mouse IgG HRP-conjugated secondary antibody (1:2,000 diluted in 1×PBS) at room temperature for 1 h. The plates were washed again and 100 μl of chromogenic substrate 2,2′-azino-bis (3-ethylbenzothiazoline-6-sulphonic acid) (ABTS, Life Science Technologies) was added. The reaction was stopped using 100 μl of ABTS peroxidase stop solution containing 5% sodium dodecyl sulfate (SDS) in water. The absorbance was read at an optical density of 405 nm using an ELISA reader (Molecular Devices). All experiments were performed in triplicate and confirmed in three independent experiments.
ELISA binding of anti-gp350 and anti-gH/gL to soluble gp350 and gH/gL proteins was performed. Soluble EBV gp350 and gH/gL proteins were used as the target antigen at 0.5 μg/ml. 1× phosphate buffered saline (PBS) was used as negative (not shown) control. Bound antibodies were detected using HRP-conjugated anti-mouse or anti-human IgG (1:2,000).

[2] = molecular target: T2, gp350 protein on gp350 expressing CHO cells (Epstein-Barr virus, UniProt P03200); test: Flow cytometry of CHO cells stably expressing EBV gp350; assay type: binding; conditions: for type of gp350 epitope recognized (linear / conformational): concluded from flow cytometry and immunoblot
T2 construct: stably co-transfected with full-length pCAGGS-gp350/220 and pCI-puro vector; expressed in transfected cells; host or cells: CHO cells
Protocol: To assess the ability of purified anti-gp350 mAb to detect surface expression of EBV gp350 protein by flow cytometry, CHO cells that stably express EBV gp350 were harvested and stained with purified anti-gp350 (10 μg/ml), followed by AF488 goat anti-mouse IgG secondary antibody. Flow cytometric analysis was performed on a C-6 FC (BD Biosciences) and data was analyzed using FlowJo Cytometry Analysis software (FlowJo, LLC) as described (47). All the experiments were independently repeated three times.
These novel antibodies were analyzed by flow cytometric analysis for surface expression of gp350 protein on 10^6 CHO cells transfected with 1 μg of pCAGGS-gp350. gp350 expressing cells were resuspended in PBS, stained with anti-gp350 mAb, which detects the gp350 ED, followed by secondary Ab goat anti-mouse conjugated to AF488. Additionally, western blot analysis was conducted on untransfected and pCAGGS-gp350 transfected CHO lysate. Anti-gp350 mAb 72A1 was used as a positive control (1:100) and anti-gp350 hybridoma clone supernatants were used at 1:50, and anti-mouse secondary antibody was used at 1:2000.
Flow cytometric analysis of gp350 and gH/gL specificity was performed. CHO wild type cells and gp350 or gH/gL-expressing CHO cells were stained with primary antibodies, followed by secondary goat anti-mouse or anti-human conjugated to AF488. Unstained cells and cells stained with secondary goat anti-mouse or anti-human conjugated to AF488 alone, were used as negative controls.

[3] = tested on: EBV-eGFP infection of Raji cells; test: EBV neutralization assay in Raji cells; assay type: cell-based, Epstein-Barr virus; conditions: for EBV neutralization, summary statement: as stated in Example 8; for blocking of EBV infection of Raji cells (in words) / blocking of EBV infection of Raji cells (nAb activity): protein G and size-exclusion chromatography-purified mAbs; for blocking of EBV infection of Raji cells (in words) / neutralization of EBV in Raji cells: 12.5-100 μg/ml; for neutralization of EBV in Raji cells (in words): spin-column purified mAbs, 12.5, 25, 50 and 100 μg/ml; for blocking of EBV infection of Raji cells (nAb activity): lowest concentration 12.5 μg/ml; for neutralization of EBV in Raji cells: spin-column purified mAbs
Protocol: EBV neutralization assay was performed in Raji cells as previously described (47). Briefly, purified individual anti-gp350 mAbs were incubated with purified AGS-EBV-eGFP (titer calculated to infect at least 8% of HEK293 cells seeded in 100 μl of serum-free DMEM) for 2 hours at 37° C. To represent EBV infection of B cells, the pre-incubated anti-gp350 mAbs/AGS-EBV-eGFP were used to infect 5×10^5 Raji cells seeded in a 96-well plate for 2 hours at 37° C. Neutralizing 72A1 and non-neutralizing 2L10 anti-gp350 mAbs served as positive and negative controls, respectively. Infected cells were washed three times with PBS to remove any unbound viruses and antibodies. Washed, infected cells were incubated in 96-well plates at 37° C. for 48 hours post-infection and the number of eGFP+ (infected) cells was determined using flow cytometry. All dilutions were performed in quintuplicate and the assays were repeated three times. Antibody EBV neutralization activity was calculated as: % neutralization=(EBValone−EBVmAb)/(EBValone)×100.
However, this antibody was recently reported to be a mixture of both functional and non-functional antibodies (50). […] The percentage of eGFP+ cells (percent infection) was determined using flow cytometry as described (47). The nAbs 72A1 and E1D1 were used as positive controls, whereas the anti-gp350 non-neutralizing mAb 2L10 and KSHV gH/gL mAb 54A1 were used as negative controls. Because HB4, HB13, HB15, HB16, HB19, HB21, and HB23 were confirmed to be polyclonal based on isotyping and/or sequence data, they were eliminated from further consideration in the neutralization assay. HB18 was not used in neutralization experiments because it was identical to HB8.
The purified eGFP-tagged-EBV was titered in Raji cells to determine percent EBV infection using a range of volumes (50-250 μl) (FIG. 5A). Then initial neutralization of EBV was conducted in Raji cells using purified mAbs at various concentrations (12.5, 25, 50, and 100 μg/ml).
EBV-eGFP+ cells were enumerated using flow cytometry.

T1 sequence (P03200 4-863): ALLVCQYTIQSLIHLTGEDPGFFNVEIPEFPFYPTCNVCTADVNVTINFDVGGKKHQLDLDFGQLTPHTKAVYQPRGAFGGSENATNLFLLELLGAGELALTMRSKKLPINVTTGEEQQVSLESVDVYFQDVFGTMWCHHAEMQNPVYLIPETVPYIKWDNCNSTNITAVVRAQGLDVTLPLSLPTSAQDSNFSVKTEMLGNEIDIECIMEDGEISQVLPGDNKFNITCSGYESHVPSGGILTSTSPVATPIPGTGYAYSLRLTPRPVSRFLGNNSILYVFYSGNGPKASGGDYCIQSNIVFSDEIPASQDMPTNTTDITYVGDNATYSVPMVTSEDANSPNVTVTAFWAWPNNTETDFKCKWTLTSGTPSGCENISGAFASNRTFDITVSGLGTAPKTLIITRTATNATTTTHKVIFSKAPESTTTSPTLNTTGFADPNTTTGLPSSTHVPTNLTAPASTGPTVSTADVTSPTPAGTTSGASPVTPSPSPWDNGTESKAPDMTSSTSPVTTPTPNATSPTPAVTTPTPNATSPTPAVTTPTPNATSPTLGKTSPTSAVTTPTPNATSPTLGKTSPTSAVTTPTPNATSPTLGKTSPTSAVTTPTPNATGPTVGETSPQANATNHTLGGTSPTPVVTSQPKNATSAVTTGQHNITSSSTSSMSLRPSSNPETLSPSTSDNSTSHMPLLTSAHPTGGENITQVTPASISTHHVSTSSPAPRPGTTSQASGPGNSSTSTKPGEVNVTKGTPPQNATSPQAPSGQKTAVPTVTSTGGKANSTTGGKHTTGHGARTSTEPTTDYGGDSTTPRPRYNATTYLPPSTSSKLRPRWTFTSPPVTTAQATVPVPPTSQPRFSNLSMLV
T2 sequence (P03200 whole entry): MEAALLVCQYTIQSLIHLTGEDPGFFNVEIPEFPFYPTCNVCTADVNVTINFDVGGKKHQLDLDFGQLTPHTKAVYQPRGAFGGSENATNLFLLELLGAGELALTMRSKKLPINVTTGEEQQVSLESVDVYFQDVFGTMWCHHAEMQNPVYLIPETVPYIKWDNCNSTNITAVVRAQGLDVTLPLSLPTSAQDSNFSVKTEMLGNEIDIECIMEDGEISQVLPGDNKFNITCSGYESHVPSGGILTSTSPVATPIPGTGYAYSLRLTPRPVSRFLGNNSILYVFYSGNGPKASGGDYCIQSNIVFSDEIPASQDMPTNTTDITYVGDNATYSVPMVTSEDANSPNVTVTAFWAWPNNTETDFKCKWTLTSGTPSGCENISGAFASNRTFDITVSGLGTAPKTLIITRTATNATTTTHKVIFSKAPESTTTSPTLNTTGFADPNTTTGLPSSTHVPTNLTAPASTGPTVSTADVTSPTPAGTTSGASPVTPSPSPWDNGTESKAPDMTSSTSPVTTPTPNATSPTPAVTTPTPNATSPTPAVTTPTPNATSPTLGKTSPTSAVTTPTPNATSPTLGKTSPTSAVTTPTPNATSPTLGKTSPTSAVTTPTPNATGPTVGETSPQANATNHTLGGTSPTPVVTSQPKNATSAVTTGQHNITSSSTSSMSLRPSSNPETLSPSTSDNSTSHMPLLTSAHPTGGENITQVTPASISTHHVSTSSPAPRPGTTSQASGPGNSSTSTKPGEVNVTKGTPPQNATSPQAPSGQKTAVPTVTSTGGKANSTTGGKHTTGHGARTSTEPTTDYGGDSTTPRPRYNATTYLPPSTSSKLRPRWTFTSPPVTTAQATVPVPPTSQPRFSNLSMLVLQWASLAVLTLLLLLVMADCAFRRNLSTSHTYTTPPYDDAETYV

Row | Molecule | ELISA binding to purified EBV gp350/220 ([1]; purified antibodies 10 μg/ml) | type of gp350 epitope recognized (linear / conformational) [2] | EBV neutralization, summary statement [3] | blocking of EBV infection of Raji cells (in words) [3] | neutralization of EBV in Raji cells (in words) [3] | Flow cytometry (CHO Cells) ([2]; CHO cells stably expressing gp350 on the surface, native/conformational epitopes) | blocking of EBV infection of Raji cells (nAb activity) [3] | ELISA signal relative to negative control 54A1 ([1]; purified antibodies 10 μg/ml) | neutralization of EBV in Raji cells [3] | ELISA binding strength to gp350, compared with m72A1 / parental antibody ([1]; soluble gp350 0.5 μg/ml)
1 | HB20: murine anti-EBV gp350 mAb, IgG2a κ; SEQ ID NO: 128 / 129; neutralizing (antibody, V domains shown, heavy chain mAb HB20; light chain mAb HB20, murine anti-EBV gp350 mAb, IgG2a κ; neutralizing) VH: ELVKPGASVKLSCKASGYTFTSYWIQWVKQRPGQGLEWIGEINPTNGHTNYNEKFKTKATLTVDKSSSTAYMRLSSLTSEDSAVYYCARNLYYYGRPDYWGQGTSVTVSSAKTTAPSVYPLAPVCGDTTGSSVTLG VL: SSLSASLGDRVTISCRASQDIGNYLNWYQQKPDGTVKLLIYYTSRLHSGVPSRFSGSGSGTDYSLTISNLEQEDIATYFCQQGNALPPTFGGGTKLEIKRADAAPTV | + | only recognized conformational epitopes | one of the best nAb | blocked EBV infection in a dose-dependent manner | failed to neutralize EBV infection | – | – | – | – | –
2 | h72A1: humanized 72A1 IgG1; heavy and light chain SEQ ID NOs: 180 and 181 (antibody, V domains shown) VH: EVQLVESGGGLVQPGGSLRLSCAASGSSFTDYTMNWMRQSPGKGLEWIGLINPYNGGTRYADSVKGRATLSLDKSKNTAYLQMNSLRAEDTAIYYCAGGLRRVNWFAYWGQGTLVTVSS VL: DAQLTQSPILLSASVGDRVTITCRSSTGAVTTSNYANWVQERTNGSFRGLIGGTNNRVPGVPSRFSGSLSGDDATLTISSLQPEDEADYFCVLWHSNHWVFGAGTKVEIKR | – | – | – | – | – | recognized native epitopes of gp350 expressed on CHO cells surface, comparable to m72A1 | 98% | – | – | –
3 | m72A1: EBV anti-gp350 neutralizing mouse antibody purified from HB168 hybridoma (ATCC); SEQ ID NO: 100 / 101 (antibody, V domains shown, heavy chain mAb 72A1; light chain mAb 72A1) VH: PELVKPGTSMKISCKASGSSFTDYTMNWMKQSHGKNLEWIGLINPYNGGTRYNQKFKGKATLTLDKSSSTAYMEVLSLTSEDSAVYYCAGGLRRVNWFAYWGQGTLVSVSAAKTTPPSVYPLAPGSAAQTNSMVTLG VL: QAVLTQESALTTSPGETVTLTCRSSTGAVTTSNYANWVQEKPDHLFTGLIGGTNNRVPGVPARFSGSLIGDKAALTITGAQTEDEAIYFCVLWHSNHWVFGGGTKLTVL | + | – | – | – | dose-dependent neutralization | – | 93% | greater than two times those of anti-KSHV gH/gL mAb 54A1 | 35-80% | –
4 | HB11: murine anti-EBV gp350 mAb, IgG1 κ; SEQ ID NO: 120 / 121; neutralizing (antibody, V domains shown, heavy chain mAb HB11; light chain mAb HB11, murine anti-EBV gp350 mAb, IgG1 κ; neutralizing) VH: PSLVKPSQTLSLTCSVTGDSITSGFWNWIRKFPGNKLEYMGYISYSGSTYYNPSLKSRISITRDTSKNQYYLQLNSVTTEDTATYYCARGNGGNYDWYFDVWGAGTTVTVSSAKTTPPSVYPLAPGSAAQTNSMVTLG VL: AIMSASLGEKVTMSCRASSSVNFMNWYQQKSDDSPKLLIYYISNLAPGVPARFSGSGSGNSYSLTISGMEGEDAATYYCQQFTSSPSWTFGGGTKLEIKRADAAPTV | + | recognized both linear and conformational epitopes | – | blocked EBV infection in a dose-dependent manner | dose-dependent neutralization | – | – | – | – | –
5 | HB5: murine anti-EBV gp350 mAb, IgG2a κ; SEQ ID NO: 108 / 109; neutralizing (antibody, V domains shown, heavy chain mAb HB5; light chain mAb HB5, murine anti-EBV gp350 mAb, IgG2a κ; neutralizing) VH: AELVRPGASVKISCKAFGYTFTNHNINWVKQRPGQGLDWIGYINPYNDYTSYNQKFKGKATLTVDKSSNTAYMELSSLTSEDSAVYYCARSEGWLRRGAWFAYWGQGTLVTVSAAKTTAPSVYPLAPVCGDTTGSSVTLG VL: AILSVSPGERVSFSCRASQSIGTSIHWYQQRTNDSPRLLIKYASESISGIPPRFSGSGSGTDFTLSINSVESEDIADYHCQQSNSWPMLTFGAGTKLELKRADAAPTV | + | recognized both linear and conformational epitopes | non-neutralizing | blocked EBV infection in a dose-dependent manner | dose-dependent neutralization | – | 90% | – | 60-80% | equal to or greater than that of the positive control, m72A1
